From doi:10.1101/2024.01.17.576111

Molecular target: PbrSYP71ΔTM-His (lacking TM domain of PbrSYP71) (Pyrus bretschneideri)
Assay: MST

Kd: 185 nM
Substance: F-actin (Pre-formed Actin Filaments, rabbit skeletal muscle actin) (from UniProt P68135 1-377) (natural protein)
